Results as given in the nanobody polyreactivity screen of Harvey et al. (2022).

Assay: yeast display, Sf9 membrane polyspecificity reagent, FACS + sequencing; frameworks hold sequencing errors
Summary of the method: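 Polyreactivity labels are assigned by the sorting gate from which each nanobody was recovered. The gates were low and high (top ~1%), set on anti-HA fluorescence for expression and streptavidin fluorescence for reagent binding. Before sorting, galactose-induced (36–48 hours) yeast display cells were stained for 1 hour at 4 °C with 10% biotinylated, detergent-solubilized Sf9 membrane reagent.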

Sequence	polyreactivity (PSR sort gate)
QVQLVESGGGLVQAGGSLRLSCAASGSTFTSYAMGWYRQAPGKERELVAGITSRGTSTYYADSVKGRFTISRDHAKNTVYLQMNSLKPEYTAVYYCAAVYLSYGPGSEDPLGYWGQGTQVTVSS	high polyreactivity
QVQLVESGGGLVQAGGSLRLSCAASGSTFTSYAMGWYRQAPGKERELVASIRSTSGRTYYADSVKGRFTISRDNAKNTVYLQMNSLKPEDTAVYYCAAATYGTWWTYADNPYDYWGQGTQVTVSS	high polyreactivity
QVQLVESGGGLVQAGGSLRLSCAASGSTFTTNAMGLYRQEPGKERELVAAITSTGSTYADSVKGRFTISRDNAMNTVYLQMNSLKPEDTAVYYCAADTQWTTPYDYWGQGTQVTVSS	low polyreactivity
QVQLVESGGGLVQAGGSLRLSCAASGSTFTTYAMRWYRQAPGKERELLAAITRGGGRTYYSDSVKGRFTISRDYAKNTVYLLMNSLKPEDTAVYYCNAGRSNSPCGRPYDYWGQGTQVTVSS	high polyreactivity
QVQLVESGGGLVQAGGSLRLSCAASGSTFTVNAMGWYRQAPGKERELVAAIRWSGDSTYYADSVKGRFTISRDNAKNTVYLQMNSLKPEDTAVYYCARDLYWGSYNYWGQGTQVTVSS	low polyreactivity
QVQLVESGGGLVQAGGSLRLSCAASGSTFTYNAMGWYRPAPGKERELVAAISYGGGRTYYADSVKGRFTISRDNAKNTVYLQMNSLKPEDTAVYYCAAGRSIGALYYGMDYWGQGTQVTVSS	high polyreactivity
QVQLVESGGGLVQAGGSLRLSCAASGSTFTYNAMGWYRQAPGKERELVAAIDRSVSTNYADSVKGRFTISRDNAKNTVYLQMNSLKPEDTAVYYCNARHPTDDIVIYDYWGQGTQVTVSS	low polyreactivity
QVQLVESGGGLVQAGGSLRLSCAASGSTFTYNAMGWYRQAPGKERELVAAISWSGGRTYYADSVKGRFTISRDNATNTVYLQMNSLKPEDTAVYSCAAKYRYSTYSFPYDYWGQGTQVTVSS	high polyreactivity
QVQLVESGGGLVQAGGSLRLSCAASGSTFTYYAMGWYRQAPGKERELVADISWDGGSTYYADSVKGRFTFSRDNAKNTVYLQMNSLKPEDTAVYYCATDLVYKYDYWGQGTQVTVSS	low polyreactivity
QVQLVESGGGLVQAGGSLRLSCAASGSTFTYYAMGWYRQAPGKERELVASITTSGGDTNYADSVKGRFTISRDNAKNTVYLQMNSLKPEDTAVYYCAADLYDPYHVYGYNYWGQGTQVTVSS	low polyreactivity
QVQLVESGGGLVQAGGSLRLSCAASGSTFVDNAMGWYRQAPGKERELVAAINSTDITNYADSVKGRFTISRDNAKNTVYLQMNSLKPEDTAVYYCAKDLLKWRKYQWYYYWGQGTQVTVSS	low polyreactivity
QVQLVESGGGLVQAGGSLRLSCAASGSTFVDNAMGWYRQAPGKERELVAAISSSGGTTYYADSVKGRFTISRDNAKNTVYLQMNSLKPEDTAVYYCAARRRSGTYWRSANDYWGQGTQVTVSS	high polyreactivity
QVQLVESGGGLVQAGGSLRLSCAASGSTFVDNAMGWYRQAPGKERELVAAISTRGGTTYYADSVKGRFTISRDNAKNTVYLQMNSLKPEDTAVYYCAADYYDSGWYGYWGQGTQVTVSS	high polyreactivity
QVQLVESGGGLVQAGGSLRLSCAASGSTFVDNAMGWYRQAPGKERELVADITWSGGSTYYADSVKGRFTISRDNAKNTVYLQMNSLKPEDTAVYYCAKVPKSRGYVGGMDYWGQGTQVTVSS	low polyreactivity
QVQLVESGGGLVQAGGSLRLSCAASGSTFVDNAMGWYRQAPGKEREMVAAIRYGSGGSTRYADSVKGRFTISRDNAKNTVYLQMNSLKPEDTAVYYCAADGYITVNYLRYDYWGQGTQVTVSS	low polyreactivity
QVQLVESGGGLVQAGGSLRLSCAASGSTFVDNLMGWYRQSPGKERELVAAIDFSTGSTYYADSVKGRFTISRDNAKNTVYLQMNSLKPDDTAVYYCNAKYYSWDWSSFNYWGQGTQVTVSS	low polyreactivity

Sequence	polyreactivity (PSR sort gate)
QVQLVESGGGLVQAGGSLRLSCAASGSTFVDYAMGWYRQAPGKERELVAAINRSGGRTYYADSVKGRFTISRDNAKNTVYLQMNSLKPEDTAVYYCAAKNPQPDEHGYWGQGTQVTVSS	high polyreactivity
QVQLVESGGGLVQAGGSLRLSCAASGSTFVFYAMGWYRQAPGKERELVAAISRSGGSTYYADSVKGRFTISRDNAKNTVYLQMNSLKPEDTAVYYCNAVRFYRYGWGQGTQVTVSS	high polyreactivity
QVQLVESGGGLVQAGGSLRLSCAASGSTFVFYAMGWYRQAPGKERELVATISSGGSTYADSVKGRFTISRDNAKNTVYLQMYSLKPEDTAVYYCAADSLFGHYDYWGQGTQVTVSS	low polyreactivity
QVQLVESGGGLVQAGGSLRLSCAASGSTFVGNAMGWYRQAPGKERELVAAISRGGGRTYYADSVKGRFTISRDNAKNTVYLQMNSLKPEDTAVYYCNADVYHRAWHLDYWGQGTQVTVSS	high polyreactivity
QVQLVESGGGLVQAGGSLRLSCAASGSTFVGYAMGWYRPAPGKDRELFAAITRGGGSTYYADSVKWRFTISRDNAKNTVYLQINSLKPEDTAVYYCAAYQHPGLRTSYEYWGQGTQVTVSS	low polyreactivity
QVQLVESGGGLVQAGGSLRLSCAASGSTFVGYAMGWYRQAPGKERELVAAISERGGRTYYADSVKGRFTISRDNAKNTVYLQMNSLKPEDTAVYYCAAYGRYPRLYTYYYWGQGTQVTVSS	high polyreactivity
QVQLVESGGGLVQAGGSLRLSCAASGSTFVGYAMGWYRQAPGKERELVAAISSSGSTNYADSVKGRFTISRDNAKNTVYLQMNSLKPEDTAVYYCAALYSYFWLIIDYGYWGQGTQVTVSS	low polyreactivity
QVQLVESGGGLVQAGGSLRLSCAASGSTFVGYAMGWYRQAPGKERELVADIDSIGGSTYYADSVNGRFTISRDNAKNTVYLQMNSLKPEDTAVYYCAARRFDTALVLYDYWGQGTQVTVSS	low polyreactivity
QVQLVESGGGLVQAGGSLRLSCAASGSTFVGYAMGWYRQAPGKEREVVAAISGSGTSTYYADSVKGRFTISRDNAKNTVYLQMNSLKPEDTAVYYCNSDPIFVYSSYNYWGQGTQVTVSS	low polyreactivity
QVQLVESGGGLVQAGGSLRLSCAASGSTFVGYAMGWYRQAPGKVRELVADITSGGGITYYADSVKGRFTISRDNAKNTVYLQMNSLKPDDTAVYYCAPGRPRPHWWSLDYYYWGQGTQVTVSS	low polyreactivity
QVQLVESGGGLVQAGGSLRLSCAASGSTFVGYVMGWYRQAPGKERELVAAITRSGTSTYYADSVKGRFTISRDNAKNTVYLQMNSLKPEDTAVYYCALRYVSSDYYYWGQGTQVTVSS	low polyreactivity
QVQLVESGGGLVQAGGSLRLSCAASGSTFVHYDMGWYRQAPGKERELVAGSTTGGSTNYADSVKGRFTISRDNAKNTVYLQMNSLKPEDTAVYYCNADSYPNLVPDYLYYWYEYWGQGTQVTVSS	low polyreactivity
QVQLVESGGGLVQAGGSLRLSCAASGSTFVHYGMGWYRQAPGKERELVAAISYSGGSTSYADSVKGRFTISRDNAKNTVYLQMNSLKPEDTAVYYCATVRKRRYDYWGQGTQVTVSS	low polyreactivity
QVQLVESGGGLVQAGGSLRLSCAASGSTFVIYAMGWYRQAPGKERELVASIRGRTGSTYYADSVKGRFTISRDNAKNTVYSQLNSLKPEDTAVYYCAAKPGYKSKMDYWGQGTQVTVSS	high polyreactivity
QVQLVESGGGLVQAGGSLRLSCAASGSTFVIYDMGWYRQAPGKERELVAAISYSGGSTYYADSVKGRFTISRDNAKNTVYLQMNSLKPEDTAVYYCNAGVLVLLYAYLPSELEYWGQGTQVTVSS	low polyreactivity
QVQLVESGGGLVQAGGSLRLSCAASGSTFVKNTMGWYRQAPGKERELVAAIRSSGGSTYYADSVKGRFTISRDNAKNTVYLQMNSLKPEDTAVYYCNKVLQASRSKYYYWGQGTQVTVSS	high polyreactivity
